Experimental data from PMC10873621.

Biological target: RNF20 (UniProt Q5VTR2)
Assay: co-IP with anti-Myc, anti-Flag blot
Details: reference: Flag-LSD1-WT; sites T810,S817,T841,S849,S851

LSD1 (from UniProt O60341) Flag-LSD1-5A
binding against the reference: weaker
